# Results published in the supplement of paper PMC10567573.
# B1: MATN2 (parent)
# chain: FIVDILQFLDIGPDVTRVGLLQYG
# Variants of: B1
# Assay: protein stability index of a GFP-peptide fusion (GPS, HEK-293T) (PSI 1-6); higher = more stable
# Settings: c terminus: a fixed tail appended
# 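Note: lentivirally expressed fusions sorted by FACS into six bins by GFP to DsRed ratio, PSI derived from sequencing read proportions per bin multiplied by bin number.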
row,Variant,protein stability index
1,FIVDILQFLRIGPDVTRVGLLQYG [D10R],3.54
2,FIVDILQFLTIGPDVTRVGLLQYG [D10T],3.42
3,FIWDILQFLDIGPDVTRVGLLQYG [V3W],3.32
4,FIKDILQFLDIGPDVTRVGLLQYG [V3K],2.6
5,FIHDILQFLDIGPDVTRVGLLQYG [V3H],4.66
6,FIYDILQFLDIGPDVTRVGLLQYG [V3Y],2.5
7,FIVDILQFLDLGPDVTRVGLLQYG [I11L],2.53
8,FIVDIIQFLDIGPDVTRVGLLQYG [L6I],2.56
9,FIVDIAQFLDIGPDVTRVGLLQYG [L6A],3.92
10,FIVDIYQFLDIGPDVTRVGLLQYG [L6Y],2.87
11,FIVDIFQFLDIGPDVTRVGLLQYG [L6F],2.17
12,FIVDIRQFLDIGPDVTRVGLLQYG [L6R],3.41
13,FIVDILQFLDIGPDVTRVGLIQYG [L21I],2.79
14,FIVDILQFLDIGPDVTRVGLGQYG [L21G],3.3
15,FIVDILQFLDIGPDVTRVGLTQYG [L21T],2.95
16,FIVDILQFLDIGPDVTRVGLCQYG [L21C],3.73
17,FIVDILQFLDIGPDVTRVGLHQYG [L21H],2.01
18,FIVDILQFLDIGPDVTRVGLAQYG [L21A],2.8
19,FIVDILQSLDIGPDVTRVGLLQYG [F8S],2.12
20,FIVDILQPLDIGPDVTRVGLLQYG [F8P],2.96
21,FIVDILQKLDIGPDVTRVGLLQYG [F8K],1.06
22,FIVDILQGLDIGPDVTRVGLLQYG [F8G],4.33
23,FIVKILQFLDIGPDVTRVGLLQYG [D4K],2.12
24,FIVEILQFLDIGPDVTRVGLLQYG [D4E],2.88

row,Variant,protein stability index
1,FIVPILQFLDIGPDVTRVGLLQYG [D4P],5.01
2,FIVCILQFLDIGPDVTRVGLLQYG [D4C],2.67
3,FIVDILQFLDIGPDDTRVGLLQYG [V15D],4.47
4,FIVDILQFLDIGPDATRVGLLQYG [V15A],2.88
5,FIVDILQFLDIGPDWTRVGLLQYG [V15W],2.06
6,FIVDILQFLDIGPDFTRVGLLQYG [V15F],3.1
7,FIVDILQFLDIGPDVTRVGLLQYL [G24L],4.05
8,FIVDILQFLDIGPDVTRVGLLQYA [G24A],2.27
9,FIVDILQFLDIGPDVTRVGLLQYF [G24F],3.31
10,FIVDILQFLDIGIDVTRVGLLQYG [P13I],2.79
11,FIVDILQFLDIGQDVTRVGLLQYG [P13Q],4
12,FIVDILQFLDIGSDVTRVGLLQYG [P13S],2.69
13,FIVDILQFLDIGWDVTRVGLLQYG [P13W],2.61
14,FIVDILQFLDIGKDVTRVGLLQYG [P13K],2.15
15,FIVDILYFLDIGPDVTRVGLLQYG [Q7Y],3.34
16,FIVDILKFLDIGPDVTRVGLLQYG [Q7K],3.78
17,FIVDILHFLDIGPDVTRVGLLQYG [Q7H],1.98
18,FIVDILQFLDIGPDVTAVGLLQYG [R17A],3.59
19,FIVDILQFLDIGPDVTIVGLLQYG [R17I],2.77
20,FIVDILQFLDIGPDVTCVGLLQYG [R17C],2.86
21,FIVDILQFLDIGPDVTSVGLLQYG [R17S],1.03
22,FIVDILQFLDIGPDVTYVGLLQYG [R17Y],3.22
23,FIVDILQFLDIGPDVTVVGLLQYG [R17V],3.47
24,FIVDILQFLDIGPDVTRDGLLQYG [V18D],2.04

row,Variant,protein stability index
1,FIVDILQFLDIGPDVTRKGLLQYG [V18K],2.05
2,FIVDILQFLDIGPDVTRCGLLQYG [V18C],2.58
3,FIVDILQFLDIGPDVTRQGLLQYG [V18Q],1.8
4,FIVDILQFLDIGPDVTRPGLLQYG [V18P],3.38
5,FRVDILQFLDIGPDVTRVGLLQYG [I2R],2.35
6,FHVDILQFLDIGPDVTRVGLLQYG [I2H],3.01
7,FYVDILQFLDIGPDVTRVGLLQYG [I2Y],3.07
8,WIVDILQFLDIGPDVTRVGLLQYG [F1W],2.01
9,AIVDILQFLDIGPDVTRVGLLQYG [F1A],2.61
10,NIVDILQFLDIGPDVTRVGLLQYG [F1N],2.54
11,KIVDILQFLDIGPDVTRVGLLQYG [F1K],2.46
12,PIVDILQFLDIGPDVTRVGLLQYG [F1P],1.15
13,FIVDILQFLDIGPAVTRVGLLQYG [D14A],2.27
14,FIVDILQFLDIGPNVTRVGLLQYG [D14N],3.04
15,FIVDILQFLDIGPYVTRVGLLQYG [D14Y],2.6
16,FIVDILQFLDIGPDVTRVGHLQYG [L20H],2.86
17,FIVDILQFLDIGPDVTRVGRLQYG [L20R],1.79
18,FIVDILQFLDIGPDVTRVGWLQYG [L20W],3.97
19,FIVDILQFLDIGPDVTRVGFLQYG [L20F],2.92
20,FIVDILQFLDIGPDVTRVGALQYG [L20A],2.25
21,FIVDILQFLDIGPDVTRVGVLQYG [L20V],4
22,FIVDILQFLDIGPDVTRVWLLQYG [G19W],2.62
23,FIVDILQFLDIGPDVTRVELLQYG [G19E],3.93
24,FIVDILQFLDIGPDVTRVVLLQYG [G19V],2.69

row,Variant,protein stability index
1,FIVDILQFLDIGPDVTRVQLLQYG [G19Q],2.7
2,FIVDILQFLDIGPDVTRVCLLQYG [G19C],1.32
3,FIVDILQFLDIGPDVTRVMLLQYG [G19M],3.24
4,FIVDILQFLDIGPDVPRVGLLQYG [T16P],2.42
5,FIVDILQFLDIGPDVYRVGLLQYG [T16Y],4.05
6,FIVDILQFLDIQPDVTRVGLLQYG [G12Q],2
7,FIVDILQFLDIIPDVTRVGLLQYG [G12I],2.79
8,FIVDILQFLDIDPDVTRVGLLQYG [G12D],2.56
9,FIVDILQFLDIRPDVTRVGLLQYG [G12R],4.05
10,FIVDILQFLDICPDVTRVGLLQYG [G12C],2.76
11,FIVDILQFLDIMPDVTRVGLLQYG [G12M],2.11
12,FIVDILQFLDIFPDVTRVGLLQYG [G12F],1.9
13,FIVDILQFLDIGPDVTRVGLLYYG [Q22Y],4.14
14,FIVDILQFLDIGPDVTRVGLLGYG [Q22G],3.55
15,FIVDILQFLDIGPDVTRVGLLFYG [Q22F],3.25
16,FIVDILQFLDIGPDVTRVGLLSYG [Q22S],3.08
17,FIVDILQFLDIGPDVTRVGLLQLG [Y23L],1.84
18,FIVDILQFKDIGPDVTRVGLLQYG [L9K],1.84
19,FIVDILQFDDIGPDVTRVGLLQYG [L9D],2.93
20,FIVDILQFADIGPDVTRVGLLQYG [L9A],1.79
21,FIVDNLQFLDIGPDVTRVGLLQYG [I5N],2.12
22,FIVDALQFLDIGPDVTRVGLLQYG [I5A],1.44
